Results taken from the supplement of paper PMC10567573.

B1: SFRS1 (parent)
chain: RDIDLKNRRGGPPFAFVEFEDPRD

Variants of: B1
Assay: protein stability index of a GFP-peptide fusion (GPS, HEK-293T) (PSI 1-6); higher = more stable
Details: c terminus: a fixed tail appended
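Further: lentivirally expressed fusions sorted by FACS into six bins by GFP to DsRed ratio, PSI derived from sequencing read proportions per bin multiplied by bin number.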

Protein stability index: each site, then its substitutions
F14: I 4.37, S 5.3, M 4.26, D 4.86, P 5.05, G 4.92, T 4.9, K 4.51, L 3.92, H 5.01, R 4.66, N 4.58, A 5.04, W 3.77, Q 5.27, C 4.91, Y 4.28, E 5.48, V 4.55
F16: N 4.91, G 5.32, K 4.89, M 4.88, S 4.7, E 5.2, Q 5, T 4.96, P 5.26, D 5.04, H 4.77, W 3.97, A 5.03, Y 4.26, I 4.36, L 4.81, C 4.45, V 4.62, R 5
R8: K 4.13, N 4.27, F 3.75, L 3.77, G 4.46, C 4.23, V 4.17, M 4.12, P 4.19, Q 4.18, T 4.33, I 4.08, Y 3.96, H 3.71, E 4.73, W 3.71, A 4.06, S 4.32, D 4.42
G10: W 2.77, I 3.41, S 4.21, R 2.96, Q 4.18, T 4.3, C 3.22, A 3.76, H 3.85, M 3.51, F 3.9, Y 3.19, D 4.15, L 3.51, V 3.71, P 3.73, E 4.2, K 3.42, N 3.63
R1: G 4.01, S 3.84, K 3.57, T 3.94, Y 3.65, W 2.69, N 4.2, L 4.21, I 3.1, H 3.89, M 4.04, V 3.97, Q 3.96, F 3.19, P 3.81, E 4.36, D 4.74
I3: Y 3.56, M 3.57, F 3.64, Q 4.1, S 3.45, C 3.75, L 3.81, H 3.92, G 4.15, W 3.95, P 3.98, K 3.77, T 3.73, V 3.79, N 3.81, E 4.71, A 4.29, R 3.6, D 4.57
L5: G 3.74, I 3.67, E 4.49, Q 4.13, H 3.59, W 3.41, D 4.49, R 3.35, C 3.11, A 4.09, P 3.68, V 3.94, N 3.89, M 3.93, S 4.06, K 3.81, T 3.72, Y 3.3, F 3.35
R9: H 4.21, F 3.94, I 4.24, T 4.03, M 4.04, E 4.18, G 4.11, V 4.21, S 4.12, K 3.69, W 4.23, P 4.16, L 4.27, A 4.57, C 3.92, D 4.43, Q 4.11, Y 3.91, N 4.5
N7: Y 3.02, W 3.28, D 4.54, Q 3.56, H 3.61, P 3.78, M 3.26, G 4.16, I 3.63, K 3.41, V 3.39, E 4.26, L 3.39, C 3.56, F 2.76, R 3.1, S 3.5, T 3.73, A 3.61
P13: A 4.62, Q 4.79, Y 4, N 4.59, S 4.57, D 4.58, R 4.23, W 3.39, E 4.83, K 4.02, F 3.42, V 3.37, L 3.28, M 4.02, G 3.86, T 4.34, I 3.34, C 4.51, H 4.65
V17: I 3.97, N 4.62, A 4.35, D 4.77, E 4.95, M 4.24, C 4.2, F 4.64, Q 4.61, R 4.33, H 4.38, K 4.62, Y 4.42, T 4.75, L 4.13, P 4.63, G 4.43, S 4.16, W 3.92
G11: A 4.11, D 4.23, E 4.47, L 2.21, N 3.83, F 3, T 3.87, H 3.52, S 4.17, M 2.61, V 3.89, W 3.1, Q 3.47, P 3.36, Y 3.28, C 3.77, R 3.25, I 3, K 3.78
K6: F 3.61, T 4.02, G 3.98, C 3.91, V 4.09, R 3.47, I 3.69, S 4.35, E 4.28, N 4.04, M 4.07, W 3.79, L 3.95, Q 4.22, P 3.63, A 4.18, H 4.71, D 3.84, Y 3.78
P12: W 3.43, Y 3.98, D 5.06, K 4.42, I 3.13, A 4.12, C 4.13, R 3.93, E 4.72, T 4.37, V 3.9, L 3.5, S 4, H 4.53, N 4.72, F 3.5, G 4.39, M 3.93, Q 4.17
A15: I 3.42, H 4.46, N 4.73, W 3.7, M 3.84, S 4.22, T 4.54, G 4.63, V 3.58, L 3.76, D 4.44, E 5.13, C 3.83, R 2.25, P 4.31, F 3.12, Y 3.56, K 4.56, Q 4.79
D2: C 3.1, V 3.28, N 3.41, H 3.19, Q 3.25, F 2.91, P 3.51, E 4.06, K 3.12, G 3.06, L 2.62, A 2.59, S 3.6, I 2.68, M 3.29, Y 2.76, T 3.19, W 2.1, R 3.34
D4: R 3.45, G 3.34, L 3.42, M 3.4, A 3.11, T 3.28, S 3.83, V 2.85, K 3.47, I 3.17, N 3.61, Y 2.92, P 3.08, C 3.33, F 2.81, W 2.35, Q 3.57, H 3.25, E 3.61
E18: G 2.77, Q 2.53, N 3.24, L 1.9, I 2.24, H 2.51, A 2.18, K 2.64, M 2.35, D 3.22, C 2.4, P 2.99, F 1.81
